# Reference: patent US20260151494A1
# Residue numbers refer to the chain shown, from its start.
# B1: CD71-binding FN3 domain SEQ ID NO: 282 (designed binder)
# chain: MSLPAPKNLVVSRVTEDSARLSWTAPDAAFDSFDIGYFELTWYGEAIVLTVPGSERSYDLTGLKPGTEYWVSIGGVKGGRFSEPLYARFTT
# B2: CD71-binding FN3 domain SEQ ID NO: 296 (designed binder)
# chain: B1 chain with R80I, F81W, E83S, Y86S, R88I
# B3: CD71-binding FN3 domain SEQ ID NO: 289 (designed binder)
# chain: MSLPAPKNLVVSRVTEDSARLSWTAPDAAFDSFEIAYFEIAWLGEAIVLTVPGSERSYDLTGLKPGTEYWVQIGGVKGGAYSTPLSAIFTT
# B4: CD71-binding FN3 domain SEQ ID NO: 286 (designed binder)
# chain: B3 chain with A36V, F38A, I40P, A41V, W42R, L43F, A80E, Y81W, T83S
# B5: CD71-binding FN3 domain SEQ ID NO: 275 (designed binder)
# chain: B3 chain with A36G, I40N, A41L, W42Y, A80N, Y81W, T83A, S86V, I88E
# B6: CD71-binding FN3 domain SEQ ID NO: 276 (designed binder)
# chain: B3 chain with I40L, A41D, W42Y, L43V, A80T, Y81W, T83G, T91I
# B7: CD71-binding FN3 domain SEQ ID NO: 283 (designed binder)
# chain: MSLPAPKNLVVSRVTEDSARLSWTAPDAAFDSFEIAYQELSLWGEAIVLTVPGSERSYDLTGLKPGTEYYVHIGGVKGGIWSSPLSAYSTT
# B8: CD71-binding FN3 domain SEQ ID NO: 277 (designed binder)
# chain: B1 chain with D34E, W42Y, S72Q, R80G, Y86S, R88I
# B9: CD71-binding FN3 domain SEQ ID NO: 290 (designed binder)
# chain: MSLPAPKNLVVSRVTEDSARLSWTAPDAAFDSFFIGYLEPQPPGEAIHLYVPGSERSYDLTGLKPGTEYNVTIQGVKGGFPSEPLVATFTT
# B10: CD71-binding FN3 domain SEQ ID NO: 294 (designed binder)
# chain: B9 chain with P43L, Y50F, V86I, T88S
# B11: CD71-binding FN3 domain SEQ ID NO: 295 (designed binder)
# chain: B9 chain with H48D
# B12: CD71-binding FN3 domain SEQ ID NO: 293 (designed binder)
# chain: B9 chain with H48D, E83H
# B13: CD71-binding FN3 domain SEQ ID NO: 279 (designed binder)
# chain: B9 chain with F80N, P81W, E83A, V86S, T88I
# B14: CD71-binding FN3 domain SEQ ID NO: 281 (designed binder)
# chain: B9 chain with H48A, V86I, T88N
# B15: CD71-binding FN3 domain SEQ ID NO: 278 (designed binder)
# chain: B3 chain with A36G, I40N, A41L, W42Y, Y58H, A80N, Y81W, T83A
# B16: CD71-binding FN3 domain SEQ ID NO: 284 (designed binder)
# chain: B3 chain with A36G, F38W, I40N, W42Y, L43K, W70M, Q72F, A80V, Y81W, T83V
# B17: CD71-binding FN3 domain SEQ ID NO: 292 (designed binder)
# chain: MSLPAPKNLVVSRVTEDSARLSWTAPDAAFDSFEIGYWENAYKGEAIVLTVPGSERSYDLTGLKPGTEYVVFIGGVKGGVWSVSLSAIFTT
# B18: CD71-binding FN3 domain SEQ ID NO: 285 (designed binder)
# chain: B17 chain with P26T, S84P
# B19: CD71-binding FN3 domain SEQ ID NO: 280 (designed binder)
# chain: B3 chain with P26L, A36G, I40N, A41L, W42Y, A80N, Y81W, T83A
# B20: CD71-binding FN3 domain of SEQ ID NO: 334 (designed binder, not shown: small tags and cut ends)
# chain: B7 chain with Y70W, H72Q, S86V, Y88S, S89F
# B21: CD71-binding FN3 domain of SEQ ID NO: 335 (designed binder, not shown: small tags and cut ends)
# chain: B9 chain with H48D, E83L
# B22: CD71-binding FN3 domain of SEQ ID NO: 336 (designed binder, not shown: small tags and cut ends)
# chain: MSLPAPKNLVVSRVTEDSARLSWTAPDAAFDSFNIMYHEHYDNGEAIVLTVPGSERSYDLTGLKPGTEYSVVINGVKGGPHSAPLSAIFTT
# B23: CD71-binding FN3 domain of SEQ ID NO: 100 (designed binder, not shown: small tags and cut ends)
# chain: MLPAPKNLVVSRVTEDSARLSWTAPDAAFDSFYIAYAEPRPDGEAILLLVPGSERSYDLTGLKPGTEYSVLIHGVKGGLLSSPLVASFTT
# B24: CD71-binding FN3 domain of SEQ ID NO: 108 (designed binder, not shown: small tags and cut ends)
# chain: B23 chain with L49Q, S87K
# B25: CD71-binding FN3 domain of SEQ ID NO: 103 (designed binder, not shown: small tags and cut ends)
# chain: B23 chain with L47I, L49G, V85S, S87Y, F88S
# B26: CD71-binding FN3 domain of SEQ ID NO: 116 (designed binder, not shown: small tags and cut ends)
# chain: B23 chain with V85I, S87G
# B27: CD71-binding FN3 domain of SEQ ID NO: 106 (designed binder, not shown: small tags and cut ends)
# chain: B23 chain with A28V, L47G, L49Y, V85T
# B28: CD71-binding FN3 domain of SEQ ID NO: 105 (designed binder, not shown: small tags and cut ends)
# chain: MLPAPKNLVVSRVTEDSARLSWTAPDAAFDSFHIVYHEPRPSGEAIWLWVPGSERSYDLTGLKPGTEYEVGIVSVKGGDLSVPLSAIFTT
# B29: CD71-binding FN3 domain of SEQ ID NO: 114 (designed binder, not shown: small tags and cut ends)
# chain: B28 chain with W49F
# B30: CD71-binding FN3 domain of SEQ ID NO: 110 (designed binder, not shown: small tags and cut ends)
# chain: B28 chain with W47Y, W49E, S85R, I87H
# B31: CD71-binding FN3 domain of SEQ ID NO: 102 (designed binder, not shown: small tags and cut ends)
# chain: MLPAPKNLVVSRVTEDSARLSWTAPDAAFDSFDIGYTEYGGYGEAIILQVPGSERSYDLTGLKPGTEYWVLIQGVKGGGSSVPLVAYFTT
# B32: CD71-binding FN3 domain of SEQ ID NO: 117 (designed binder, not shown: small tags and cut ends)
# chain: MLPAPKNLVVSRVTEDSARLSWTAPDAAFDSFFIGYLEPQPPGEAIWLLVPGSERSYDLTGLKPGTEYNVTIQGVKGGFPSTPLSAIFTT
# B33: CD71-binding FN3 domain of SEQ ID NO: 112 (designed binder, not shown: small tags and cut ends)
# chain: B32 chain with W47D, L49W, T82M
# B34: CD71-binding FN3 domain of SEQ ID NO: 107 (designed binder, not shown: small tags and cut ends)
# chain: B32 chain with W47G, L49Q, T82M
# B35: CD71-binding FN3 domain of SEQ ID NO: 109 (designed binder, not shown: small tags and cut ends)
# chain: B32 chain with W47I, L49H, T82L, S85N, I87N
# B36: CD71-binding FN3 domain of SEQ ID NO: 113 (designed binder, not shown: small tags and cut ends)
# chain: B32 chain with W47Y, T82D
# B37: CD71-binding FN3 domain of SEQ ID NO: 115 (designed binder, not shown: small tags and cut ends)
# chain: B32 chain with W47D, L49Y, T66I, T82L, S85Q, I87H
# B38: CD71-binding FN3 domain of SEQ ID NO: 104 (designed binder, not shown: small tags and cut ends)
# chain: B32 chain with W47H, L49I, L62Q, T82D, S85V, I87S
# B39: CD71-binding FN3 domain of SEQ ID NO: 111 (designed binder, not shown: small tags and cut ends)
# chain: B32 chain with W47S, L49W, T82I, S85W
# B40: CD71-binding FN3 domain of SEQ ID NO: 101 (designed binder, not shown: small tags and cut ends)
# chain: MLPAPKNLVVSRVTEDSARLSWTAPDAAFDSFGIGYWERRWYGEAIVLTVPGSERSYDLTGLKPGTEYEVTIRGVKGGGYSGPLSAIFTT
# Molecular target: apical domain of CD71 (Screen 3: 'cynomolgus apical domain of human CD71') (cynomolgus (as paragraph 454 words it; ambiguous))
# Assay: primary ELISA
row,RLU,Binder
1,4.85e+06 RLU,B1
2,4.82e+06 RLU,B2
3,5.2e+06 RLU,B3
4,5.31e+06 RLU,B4
5,5.44e+06 RLU,B5
6,4.54e+06 RLU,B6
7,6.14e+06 RLU,B7
8,5.75e+06 RLU,B8
9,6.87e+06 RLU,B9
10,7.4e+06 RLU,B10
11,6.71e+06 RLU,B11
12,6.72e+06 RLU,B12
13,5.54e+06 RLU,B13
14,6.93e+06 RLU,B14
15,5.1e+06 RLU,B15
16,4.41e+06 RLU,B16
17,5.29e+06 RLU,B17
18,5.13e+06 RLU,B18
19,4.97e+06 RLU,B19

# Molecular target: human serum albumin (human) (UniProt P02768)
# Assay: primary ELISA screen, HSA negative control
# Chain of human serum albumin (human) (P02768 25-609 limits assumed): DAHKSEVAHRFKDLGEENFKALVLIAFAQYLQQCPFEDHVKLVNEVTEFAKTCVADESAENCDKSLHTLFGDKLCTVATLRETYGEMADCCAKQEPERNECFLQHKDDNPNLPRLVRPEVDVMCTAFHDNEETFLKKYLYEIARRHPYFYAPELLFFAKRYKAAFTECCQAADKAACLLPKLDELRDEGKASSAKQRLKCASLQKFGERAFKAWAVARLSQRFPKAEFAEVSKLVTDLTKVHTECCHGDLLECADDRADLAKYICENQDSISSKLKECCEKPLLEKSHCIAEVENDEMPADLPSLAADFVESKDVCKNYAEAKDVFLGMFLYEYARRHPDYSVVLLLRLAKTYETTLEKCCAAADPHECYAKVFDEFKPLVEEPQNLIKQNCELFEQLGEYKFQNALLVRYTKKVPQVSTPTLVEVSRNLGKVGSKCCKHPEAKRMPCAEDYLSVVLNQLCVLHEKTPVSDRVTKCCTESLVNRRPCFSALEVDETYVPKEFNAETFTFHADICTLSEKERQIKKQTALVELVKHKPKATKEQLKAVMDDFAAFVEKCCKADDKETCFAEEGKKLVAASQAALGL
row,RLU,Binder
1,14400 RLU,B20
2,57300 RLU,B21
3,16800 RLU,B22

# Molecular target: human serum albumin (human) (UniProt P02768)
# Assay: primary ELISA of colonies, luminescence; negative control antigen
row,"HSA, RLU",Binder
1,7750 RLU,B23
2,3350 RLU,B24
3,18200 RLU,B25
4,2750 RLU,B26
5,2550 RLU,B27
6,3000 RLU,B28
7,11600 RLU,B29
8,2500 RLU,B30
9,4550 RLU,B31
10,3750 RLU,B32
11,2650 RLU,B33
12,3250 RLU,B34
13,3250 RLU,B35
14,2800 RLU,B36
15,5200 RLU,B37
16,29400 RLU,B38
17,2600 RLU,B39
18,4350 RLU,B40

# Molecular target: apical domain of CD71 (Screen 3: 'cynomolgus apical domain of human CD71') (cynomolgus (as paragraph 454 words it; ambiguous))
# Assay: primary ELISA, RLU ratio to HSA
row,Apical domain:HSA,Binder
1,365,B1
2,141,B2
3,112,B3
4,262,B4
5,515,B5
6,90,B6
7,229,B7
8,383,B8
9,158,B9
10,245,B10
11,474,B11
12,605,B12
13,680,B13
14,413,B14
15,641,B15
16,363,B16
17,355,B17
18,368,B18
19,160,B19
